Substrate in the data set: O=C(O)[C@H](O)[C@@H](O)[C@@H](O)[C@H](O)CO
Briefly: cells, lysate or membranes. The data set is classed as cell-based, Escherichia coli. The conditions noted are these: pH 6.5, 150 mM KCl, 25 °C, 30 s uptake, labelled compound, H+ symport.

B1: DgoT (Escherichia coli) (protein)
chain: MVSGFAMPKIWRKLAMDIPVNAAKPGRRRYLTLVMIFITVVICYVDRANLAVASAHIQEEFGITKAEMGYVFSAFAWLYTLCQIPGGWFLDRVGSRVTYFIAIFGWSVATLFQGFATGLMSLIGLRAITGIFEAPAFPTNNRMVTSWFPEHERASAVGFYTSGQFVGLAFLTPLLIWIQEMLSWHWVFIVTGGIGIIWSLIWFKVYQPPRLTKGISKAELDYIRDGGGLVDGDAPVKKEARQPLTAKDWKLVFHRKLIGVYLGQFAVASTLWFFLTWFPNYLTQEKGITALKAGFMTTVPFLAAFVGVLLSGWVADLLVRKGFSLGFARKTPIICGLLISTCIMGANYTNDPMMIMCLMALAFFGNGFASITWSLVSSLAPMRLIGLTGGVFNFAGGLGGITVPLVVGYLAQGYGFAPALVYISAVALIGALSYILLVGDVKRVG
notes: full-length in pQE60, C-terminal thrombin site and decahistidine tag (kept in uptake assays, cut for crystallization); expressed in E. coli dgoT knock-out (Keio, lambda-DE3) for uptake, E. coli C41 for purification
In general, Km refers to the concentration of substrate that gives half-maximal velocity. In the case of B1, the Km turned out to be 18 ± 4 µM.

The values are drawn from publication PMC6532931, “Structures suggest a mechanism for energy coupling by a family of organic anion transporters” (PLoS Biology, 2019).
